In IntAct's records for PubMed 22232549:

B1: Extra-large guanine nucleotide-binding protein 2 (Arabidopsis thaliana (Mouse-ear cress)), C6KIE6 (parent)
chain: MAAVIRKLLPFPSPNPKRDNRESDDDDETSSGYRIEYSFASEYKGPLIANVPRALPVEVDQIPTALPVSFSSLRSGISYPVAPLVMTKDTKRPPDSGIEKKNGFVDSAAGSSVVLIGRDVVSGSSSSSSSKRLDVPEEVKSPADFRLSPSSPLSASAREEDHLDDDRVSDVGPRAVRFVEPFQSSECDESSYVSDGESIAATHRAERKGKRGSCYRCQLGNRFTEKEVCIVCDAKYCFNCVRRAMGAMPEGRKCQACIGYRIDESKRASLGKCSRMLKRHLTDSELRQVMNAEITCKANQLPSRLIIVNDKPLSEDELYTLQTCPNPPKKLKPGHYWYDKVAGYWGKIGEKPSQIISPNNSIGGYISEKVSNGDTEIYINGREITKPELTMLKWAGVQCEGKPHFWVDSDGSYREEGQKHPIGNIWSKKRAKIACAVFSLPVPPASSAVEPYDVPLYEQKMLNKLLLIGSEKGGATTIYKQARSLYNVSFSLEDRERIKFIIQTNLYTYLAMVLEAHERFEKEMSNDQSSGNVGDETSAKPGNSINPRLKHFSDWVLKEKEDGNLKIFPPSSRENAQTVADLWRVPAIQATYKRLRDTLPRNAVYFLERILEISRSEYDPSDMDILQAEGLSSMEGLSCVDFSFPSTSQEESLESDYQHDTDMKYQLIRLNPRSLGENWKLLEMFEDADLVIFCVSLTDYAENIEDGEGNIVNKMLATKQLFENMVTHPSLANKRFLLVLTKFDLLEEKIEEVPLRTCEWFEDFNPLISQNQTSRHNPPMAQRAFHYIGYKFKRLYDSILEPVNMRGRSFKPKLFVCQVSLESDTVDNALRYAREILKWHVEETSMFQEMSTTSIEASSSS
partner: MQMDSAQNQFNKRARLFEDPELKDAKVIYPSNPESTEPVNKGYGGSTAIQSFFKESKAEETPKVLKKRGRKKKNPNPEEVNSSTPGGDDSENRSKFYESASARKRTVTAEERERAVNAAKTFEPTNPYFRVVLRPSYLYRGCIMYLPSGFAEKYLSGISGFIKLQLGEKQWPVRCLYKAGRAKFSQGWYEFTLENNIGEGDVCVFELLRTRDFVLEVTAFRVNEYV

Variants of: B1
Conditions: with rem19_arath REM19, Q9XIB5

| Variant | effect of a mutation on the interaction |
| --- | --- |
| T476N | disrupting interaction |
